Results as given in the supplement of paper PMC9170038.

Test system: K4 kissing-loop RNA reporter
Experiment: apparent KD of K4 kissing-loop reporter; higher = weaker reporter binding
Details: Eterna round: R107
Procedure: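 RNA-MaP round R107: designed RNA switches with theophylline, tryptophan, arginine or FMN aptamers are transcribed on-chip within common flanks. They are titrated with a labelled K4 kissing-loop RNA reporter in RNA-MaP buffer (100 mM Tris pH 7.5, 80 mM KCl, 4 mM MgCl2), without ligand or with the indicated ligand. Median apparent KD per design.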

[1] = input ligand: theophylline 20 uM
[2] = input ligand: tryptophan 2.4 mM
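Also: bound reporter read as fluorescence of individual clusters on recovered sequencing chips by microscopy, with normalized cluster intensities fitted with a binding model.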

CGGAUGUAGUGAUGUUAUAUUAGAUGUAGACGAGGACCGGUACGGCCGCCACUCGUGAUGGCUGCUAGCGCGUUGCGAGGUUUGC [ExTryptoA.Co]
apparent KD of K4 kissing-loop reporter (input ligand: FMN 200 uM): 408 nM | apparent KD of K4 kissing-loop reporter (input ligand: arginine 13.2 mM): 558 nM | apparent KD of K4 kissing-loop reporter (input ligand: none): 567 nM | apparent KD of K4 kissing-loop reporter [1]: 633 nM | apparent KD of K4 kissing-loop reporter [2]: 386 nM

AAUAACUAGUAUAUUUUUAAUAAUACAGAUACCAGUGAUAAUAAACACCCUUGGCAGCUGAUCGAGUGAUGUUCGUUUAUUUUAA [JR_SSTheophyA_Sub002]
apparent KD of K4 kissing-loop reporter (input ligand: FMN 200 uM): 84 nM | apparent KD of K4 kissing-loop reporter (input ligand: arginine 13.2 mM): 74.6 nM | apparent KD of K4 kissing-loop reporter (input ligand: none): 93.3 nM | apparent KD of K4 kissing-loop reporter [1]: 188 nM | apparent KD of K4 kissing-loop reporter [2]: 66.2 nM

GCCGCAAGGCUAGCAGCAAUAGGCGCUCGCUAGGAUAUCUGGAAACAGAGAAGGAGCUGGAGUGAUGUUUUACCUCCUUGUUAUU
apparent KD of K4 kissing-loop reporter (input ligand: FMN 200 uM): 1000 nM | apparent KD of K4 kissing-loop reporter (input ligand: arginine 13.2 mM): 735 nM | apparent KD of K4 kissing-loop reporter (input ligand: none): 950 nM | apparent KD of K4 kissing-loop reporter [1]: 814 nM | apparent KD of K4 kissing-loop reporter [2]: 657 nM

UUUUGGUUCUGAGGAUAUUCGAAGAAAUAUAGUGAUGUUAUAUAAGGAGGAGGAUGUAGGGAGGAAGGAGAAGGCAGAAGAGGAG [ExFMNB.J]
apparent KD of K4 kissing-loop reporter (input ligand: FMN 200 uM): 1040 nM | apparent KD of K4 kissing-loop reporter (input ligand: arginine 13.2 mM): 915 nM | apparent KD of K4 kissing-loop reporter (input ligand: none): 880 nM | apparent KD of K4 kissing-loop reporter [1]: 377 nM | apparent KD of K4 kissing-loop reporter [2]: 480 nM

UGAUACCAGGCGGCCGCCACUCCCGCAGGUCAAAGACCUGCGAAGCUGGUUCUCCAGUGAUGUUGGAGGACCGGGCCUGGUAUCU [FiskerMod 26 - Jieux - Exclusion - Tryptophan B]
apparent KD of K4 kissing-loop reporter (input ligand: FMN 200 uM): 191 nM | apparent KD of K4 kissing-loop reporter (input ligand: arginine 13.2 mM): 141 nM | apparent KD of K4 kissing-loop reporter (input ligand: none): 152 nM | apparent KD of K4 kissing-loop reporter [1]: 168 nM | apparent KD of K4 kissing-loop reporter [2]: 436 nM

GCCGUAGAUUGAAGGAGCGGGAGAGGGAAAGUGAUGUUUUCUCUAUGACGGCGUCCUCGAUCCCAGGUAGGUCGCAAUCUACGGC
apparent KD of K4 kissing-loop reporter (input ligand: FMN 200 uM): 137 nM | apparent KD of K4 kissing-loop reporter (input ligand: arginine 13.2 mM): 80.7 nM | apparent KD of K4 kissing-loop reporter (input ligand: none): 99.7 nM | apparent KD of K4 kissing-loop reporter [1]: 80.3 nM | apparent KD of K4 kissing-loop reporter [2]: 105 nM

AAAAGCCUACAGGAUACCAGCCGAAUACUAAAAGGCUGGAGUGAUGUUCCAGCUUGCCGCGGCCCUUGGCAGCCUAGCUGGGUGA [Soatriti]
apparent KD of K4 kissing-loop reporter (input ligand: FMN 200 uM): 248 nM | apparent KD of K4 kissing-loop reporter (input ligand: arginine 13.2 mM): 258 nM | apparent KD of K4 kissing-loop reporter (input ligand: none): 507 nM | apparent KD of K4 kissing-loop reporter [1]: 341 nM | apparent KD of K4 kissing-loop reporter [2]: 286 nM

AAGUGUCAUUAGACACAGACUACAAUACGCUAGGAUAUGCUGAUAAGCAGAAGGAGUGAUGUUCCUUUCAAGUAGUCAAUUAAAU [FmnAX 22 Mat Inspired #SwitchBubble #StaticStem #K4Late]
apparent KD of K4 kissing-loop reporter (input ligand: FMN 200 uM): 319 nM | apparent KD of K4 kissing-loop reporter (input ligand: arginine 13.2 mM): 140 nM | apparent KD of K4 kissing-loop reporter (input ligand: none): 136 nM | apparent KD of K4 kissing-loop reporter [1]: 166 nM | apparent KD of K4 kissing-loop reporter [2]: 124 nM

AGAACUGUCUGAGAUACCAGCUAAGGAGUGAUGUUCCUAAGUCCACGAAAGUGGACUCAUAGCCCUUGGCAGCUCAGACAGUUCA [#24 K4 Theophylline B Same State]
apparent KD of K4 kissing-loop reporter (input ligand: FMN 200 uM): 1150 nM | apparent KD of K4 kissing-loop reporter (input ligand: arginine 13.2 mM): 675 nM | apparent KD of K4 kissing-loop reporter (input ligand: none): 815 nM | apparent KD of K4 kissing-loop reporter [1]: 565 nM | apparent KD of K4 kissing-loop reporter [2]: 963 nM

GCGCGUGUUAAAGGAUAUAGCAGGUGAUACAAGAAAGUGAGUGAUGUUUAUGUAGAUGAUGAUAUGUUAGAAGGUUAACACGCGC [abcdefghijklmnopqr]
apparent KD of K4 kissing-loop reporter (input ligand: FMN 200 uM): 784 nM | apparent KD of K4 kissing-loop reporter (input ligand: arginine 13.2 mM): 635 nM | apparent KD of K4 kissing-loop reporter (input ligand: none): 966 nM | apparent KD of K4 kissing-loop reporter [1]: 688 nM | apparent KD of K4 kissing-loop reporter [2]: 629 nM

GGCUUGCCAGUGAUGUUGGCAUAAACUGAAGGAGCGCGUGAAAACGCAGGUAGGUCGCAGAACCUUGCCAACUAUUUUAUUUGCC [Ex Arginine A K4 24]
apparent KD of K4 kissing-loop reporter (input ligand: FMN 200 uM): 192 nM | apparent KD of K4 kissing-loop reporter (input ligand: arginine 13.2 mM): 223 nM | apparent KD of K4 kissing-loop reporter (input ligand: none): 212 nM | apparent KD of K4 kissing-loop reporter [1]: 252 nM | apparent KD of K4 kissing-loop reporter [2]: 210 nM

GUCCCGAGUGAUGUUCGGGUCGUUCGGGAAGGAGCGCCCGGAAGGGCAGGUAGGUCGCCCGGAUCCCUCAGGUAACUGAGGGACC [#2 Same State - Arginine A Attempt #25 (HarryS)]
apparent KD of K4 kissing-loop reporter (input ligand: FMN 200 uM): 483 nM | apparent KD of K4 kissing-loop reporter (input ligand: arginine 13.2 mM): 334 nM | apparent KD of K4 kissing-loop reporter (input ligand: none): 553 nM | apparent KD of K4 kissing-loop reporter [1]: 450 nM | apparent KD of K4 kissing-loop reporter [2]: 466 nM

CCGCUACCCUCAGGAUAUUAAAUAUUAGUGAUGUUAAUAAACCGAUGGCGAAAGCCAUCGGUAUGUUGAGAAGGGAGGGUAGCGG [whbob_SS_FMNB__2th196]
apparent KD of K4 kissing-loop reporter (input ligand: FMN 200 uM): 145 nM | apparent KD of K4 kissing-loop reporter (input ligand: arginine 13.2 mM): 593 nM | apparent KD of K4 kissing-loop reporter (input ligand: none): 766 nM | apparent KD of K4 kissing-loop reporter [1]: 549 nM | apparent KD of K4 kissing-loop reporter [2]: 635 nM

CCCUCACGAGUGAUGUUCGUAGGGUACAGUCAGGAUAUCAUGCGGUUGAGAAGGGACAGAGAGGGCGGCGGCGGGUUGCUCAUCU [Isanausbe]
apparent KD of K4 kissing-loop reporter (input ligand: FMN 200 uM): 197 nM | apparent KD of K4 kissing-loop reporter (input ligand: arginine 13.2 mM): 217 nM | apparent KD of K4 kissing-loop reporter (input ligand: none): 325 nM | apparent KD of K4 kissing-loop reporter [1]: 266 nM | apparent KD of K4 kissing-loop reporter [2]: 215 nM

AAGGCCACGAGAAGGAGCGUGUUGUGGAGUGAUGUUCCACUGUAGACCUAAGGUCUACAGGCACAGGUAGGUCGCUCGUGGUCAA [Omei KL Arginine B SS A v6]
apparent KD of K4 kissing-loop reporter (input ligand: FMN 200 uM): 131 nM | apparent KD of K4 kissing-loop reporter (input ligand: arginine 13.2 mM): 110 nM | apparent KD of K4 kissing-loop reporter (input ligand: none): 145 nM | apparent KD of K4 kissing-loop reporter [1]: 131 nM | apparent KD of K4 kissing-loop reporter [2]: 127 nM

AGAGUGAUGUUUUUUUGAAGUGAGUAAAGUCGAGGACCGGUACGGCCGCCACUCGAGUGAUGUUAGUGAUGUUGAUGUAGUGAUG [xxzmullin]
apparent KD of K4 kissing-loop reporter (input ligand: FMN 200 uM): 110 nM | apparent KD of K4 kissing-loop reporter (input ligand: arginine 13.2 mM): 69 nM | apparent KD of K4 kissing-loop reporter (input ligand: none): 90.9 nM | apparent KD of K4 kissing-loop reporter [1]: 105 nM | apparent KD of K4 kissing-loop reporter [2]: 75.4 nM
